Laboratory results from PMC4841774 (eLife, 2016).
One block for each molecule: values may come before it.

Experiments:
[1] = molecular target: MTA1-C (residues 162–715) (human) (UniProt Q13330); assay: affinity purification with mass spectrometry; Flag-tagged MTA1 fragments co-transfected with HDAC1 in HEK293F; complexes purified on FLAG resin; endogenous RBBP4/7 identified by peptide mass spectrometry; ratio by densitometry of the SDS-PAGE gel (ImageJ)
[2] = molecular target: MTA1-B (residues 162–546) (human) (UniProt Q13330); assay: as above
[3] = molecular target: MTA1-A (residues 162–354) (human) (UniProt Q13330); assay: SEC-MALS; gel-filtrated co-expressed complexes at 1 mg/ml reapplied to Superdex S200; Optilab T-rEX and DAWN HELEOS detectors
[4] = molecular target: T1, HDAC1 (residues 1–482), untagged (human, UniProt Q13547 1-482); assay: SAXS; purified co-expressed complexes, 1 to 5 mg/ml, 25°C, Diamond B21; ab initio envelopes; settings: both partners purified
T1 construct: Histone deacetylase 1 (HDAC1), residues 1-482; source: HEK293F, co-transfected with MTA1 fragments, co-purified (FLAG resin through MTA1, TEV elution, Superdex S200)
T1 sequence (Q13547 whole entry, the tested form may be a part): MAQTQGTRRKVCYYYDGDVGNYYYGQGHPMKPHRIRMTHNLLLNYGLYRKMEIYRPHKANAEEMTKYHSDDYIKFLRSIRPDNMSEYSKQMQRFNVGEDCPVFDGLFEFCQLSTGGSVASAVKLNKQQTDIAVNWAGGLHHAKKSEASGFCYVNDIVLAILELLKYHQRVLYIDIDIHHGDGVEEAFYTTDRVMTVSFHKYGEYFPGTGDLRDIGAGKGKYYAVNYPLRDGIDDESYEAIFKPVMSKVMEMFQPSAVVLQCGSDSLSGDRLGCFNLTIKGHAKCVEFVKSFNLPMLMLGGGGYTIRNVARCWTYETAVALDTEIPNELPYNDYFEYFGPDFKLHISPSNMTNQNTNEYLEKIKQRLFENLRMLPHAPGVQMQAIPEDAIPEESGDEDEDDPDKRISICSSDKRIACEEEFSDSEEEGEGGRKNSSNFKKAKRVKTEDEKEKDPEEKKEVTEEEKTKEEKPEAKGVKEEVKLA

[5] = molecular target: the molecule itself; assay: SEC-MALS; gel-filtrated co-expressed complexes at 1 mg/ml reapplied to Superdex S200; Optilab T-rEX and DAWN HELEOS detectors
[6] = molecular target: T2, RBBP4 (residues 1–425), untagged (human, UniProt Q09028 1-425); assay: as above; settings: both partners purified
T2 construct: also called RbAp48; source: HEK293F, co-transfected with MTA1 fragments, co-purified (FLAG resin through MTA1, TEV elution, Superdex S200)
T2 sequence (Q09028 whole entry, the tested form may be a part): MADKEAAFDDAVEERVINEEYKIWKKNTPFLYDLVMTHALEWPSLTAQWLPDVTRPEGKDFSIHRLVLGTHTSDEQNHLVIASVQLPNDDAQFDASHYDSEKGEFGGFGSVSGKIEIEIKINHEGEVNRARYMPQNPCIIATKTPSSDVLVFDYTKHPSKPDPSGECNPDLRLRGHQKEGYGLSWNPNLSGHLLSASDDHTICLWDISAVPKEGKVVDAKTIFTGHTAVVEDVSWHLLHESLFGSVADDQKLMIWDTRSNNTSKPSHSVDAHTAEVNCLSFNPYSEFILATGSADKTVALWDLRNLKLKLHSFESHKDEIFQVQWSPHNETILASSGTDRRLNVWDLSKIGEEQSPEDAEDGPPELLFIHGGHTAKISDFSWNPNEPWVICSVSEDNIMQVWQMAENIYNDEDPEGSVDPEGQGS

ratio HDAC1:RBBP4/7 (gel densitometry) (RBBP4/7 per HDAC1) [1]: 1.5 | ratio HDAC1:RBBP4/7 (gel densitometry) (RBBP4/7 per HDAC1) [2]: 1
Molecule: endogenous RBBP4/7 (from UniProt Q09028 1-425) (natural protein)

stoichiometry N (copies in the complex) [3]: 2
Molecule: MTA1-A (residues 162–354) (from UniProt Q13330 162-354) (domain or fragment)

binding result [4]: binds | binding result [6]: binds
B1: MTA1-B (residues 162–546) (domain or fragment, human, UniProt Q13330 162-546, looked up)
chain: ADKGEIRVGNRYQADITDLLKEGEEDGRDQSRLETQVWEAHNPLTDKQIDQFLVVARSVGTFARALDCSSSVRQPSLHMSAAAASRDITLFHAMDTLHKNIYDISKAISALVPQGGPVLCRDEMEEWSASEANLFEEALEKYGKDFTDIQQDFLPWKSLTSIIEYYYMWKTTDRYVQQKRLKAAEAESKLKQVYIPNYNKPNPNQISVNNVKAGVVNGTGAPGQSPGAGRACESCYTTQSYQWYSWGPPNMQCRLCASCWTYWKKYGGLKMPTRLDGERPGPNRSNMSPHGLPARSSGSPKFAMKTRQAFYLHTTKLTRIARRLCREILRPWHAARHPYLPINSAAIKAECTARLPEASQSPLVLKQAVRKPLEAVLRYLETHPR
notes: Captured on FLAG resin by the tag, then released with TEV; Two copies in the dimeric MTA1-B:HDAC1:RBBP4 complex by MALS; not shown: His10, N-terminal, cleaved; Flag3, N-terminal, cleaved
stoichiometry N [5]: 2 copies in the complex
